This assay concerns the target cell adhesion mediating proteins (CAMP), e.g. integrins, on the cells of the pig skin. In words: cell-based or functional assay.

B1: C16spRGD (eADF4 (C16) genetically fused at the C-terminus to the tag spRGD, …) (protein)
chain: MASMTGGQQMGRGSMGSSAAAAAAAASGPGGYGPENQGPSGPGGYGPGGPGSSAAAAAAAASGPGGYGPENQGPSGPGGYGPGGPGSSAAAAAAAASGPGGYGPENQGPSGPGGYGPGGPGSSAAAAAAAASGPGGYGPENQGPSGPGGYGPGGPGSSAAAAAAAASGPGGYGPENQGPSGPGGYGPGGPGSSAAAAAAAASGPGGYGPENQGPSGPGGYGPGGPGSSAAAAAAAASGPGGYGPENQGPSGPGGYGPGGPGSSAAAAAAAASGPGGYGPENQGPSGPGGYGPGGPGSSAAAAAAAASGPGGYGPENQGPSGPGGYGPGGPGSSAAAAAAAASGPGGYGPENQGPSGPGGYGPGGPGSSAAAAAAAASGPGGYGPENQGPSGPGGYGPGGPGSSAAAAAAAASGPGGYGPENQGPSGPGGYGPGGPGSSAAAAAAAASGPGGYGPENQGPSGPGGYGPGGPGSSAAAAAAAASGPGGYGPENQGPSGPGGYGPGGPGSSAAAAAAAASGPGGYGPENQGPSGPGGYGPGGPGSSAAAAAAAASGPGGYGPENQGPSGPGGYGPGGPGGGSGGRGDSPG
Molecule B1 had an Average σmax (N), pulling test on pig skin stripes, 35 mg/ml, 30 min incubation of 5.29 N and an average maximal adhesion strength compared with C16 (no RGD), pulling test on pig skin of 80%.

For the origin of these results see US20220257825A1.
